Laboratory results: the RNAGym collection of RNA variant scans (doi:10.1073/pnas.2313332121)

B1: TPR t1 (parent)
chain: GACCAAUCUGCCCUCAGAGCUCGAGAACAUCUUCGGAUGCAGAGGAGGCAGGCUUCGGUGGCGCGAUAGCGCCAACGUCCUCAACCUCCAAUGCAUCCCACCACAUGAUGAUGCCUGAAGAGCCUUGGUUUUUUG

Variants of: B1
Experiment: polymerase ribozyme fitness, log enrichment relative to wild type (log ratio); higher = more active; in vitro selection for triplet polymerase activity
How it was run: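 A single round of triplicate in vitro selection, including frozen incubation at −7 °C, was applied to PCR-built, transcribed mutant libraries of each subunit of a heterodimeric triplet polymerase ribozyme. Illumina sequencing of input and output libraries retained genotypes with ≥10 input reads and ≥1 read per output. Fitness is the base-2 logarithm of genotype enrichment divided by wild-type enrichment, from inverse-variance-weighted replicate averages.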

Going from A83C G110C G120C to U59A C79U G110A A119C, the “polymerase ribozyme fitness (log ratio)” value rises from -5.9 to -3.05.

Compared with C28G C53U C56U, G36A U109A is lower in “polymerase ribozyme fitness (log ratio)” value: -2.28 for the first, -5.64 for the second.

G39U C115U and C49A U54A G60U U81A G128U are within 0.2 log units of each other in “polymerase ribozyme fitness (log ratio)” value: -1.86 for the first, -2 for the second.

First: G44U A46C A95G
Second: C34G G61A G120A
The “polymerase ribozyme fitness (log ratio)” value of the first is higher: -3.59 for the first, -5.72 for the second.

G10A A16U C85G and G44U A84G G120C U130G are within 0.2 log units of each other in “polymerase ribozyme fitness (log ratio)” value: -3.05 for the first, -2.91 for the second.

Going from G42C C49G C72G to G17A A27C G57C C73A G93U G113C A118C U125A, the “polymerase ribozyme fitness (log ratio)” value falls from -3.71 to -7.69.

First: C20A G39A G77U A121G
Second: U14A U54A U130G
The “polymerase ribozyme fitness (log ratio)” value of the first is higher: -1.8 for the first, -4.16 for the second.

First: C11G G19C
Second: A29U G45U A74G
The “polymerase ribozyme fitness (log ratio)” value of the first is higher: -2.06 for the first, -3.27 for the second.

Compared with A74U C101U, G42U C82A is lower in “polymerase ribozyme fitness (log ratio)” value: -0.51 for the first, -1.61 for the second.

First: A2G A29G G120A C123G
Second: U7G G52A C85A U87G
The “polymerase ribozyme fitness (log ratio)” value of the first is higher: -0.383 for the first, -1.55 for the second.

First: C70U C72U
Second: U21C A95G
The “polymerase ribozyme fitness (log ratio)” value of the first is higher: 0.27 for the first, -0.566 for the second.

Compared with U32A G44A G63C U87C, A5C C8U C62U is higher in “polymerase ribozyme fitness (log ratio)” value: -4.85 for the first, -0.266 for the second.

First: G47A G63A C85G
Second: C12U C13U C76A C114G
The “polymerase ribozyme fitness (log ratio)” value of the first is higher: -3.45 for the first, -3.72 for the second.

First: A18U A66G U78C A118G U132A
Second: A46U C80U A103U A121U G135A
The “polymerase ribozyme fitness (log ratio)” value of the first is higher: -3.83 for the first, -5.5 for the second.

Going from G10A G61A A111G to A16C G45U, the “polymerase ribozyme fitness (log ratio)” value falls from 0.12 to -4.66.

Going from C8U C62A C114G U126A to C3U C31G G120C, the “polymerase ribozyme fitness (log ratio)” value falls from -3.89 to -6.61.

Going from C62A C124A to C11A G113C G135U, the “polymerase ribozyme fitness (log ratio)” value falls from 1.01 to -4.88.

Compared with C115G G117C, C11G C70G U116A U129C is lower in “polymerase ribozyme fitness (log ratio)” value: -5.84 for the first, -6.8 for the second.

First: C72U U125C
Second: G36A U92A C115U
The “polymerase ribozyme fitness (log ratio)” value of the first is higher: -1.92 for the first, -4.93 for the second.

Going from G57A U59G to A26G C56G C97U C99A A111G, the “polymerase ribozyme fitness (log ratio)” value falls from -0.399 to -6.74.

First: C11U G35U A111U G122C
Second: U55G C72U C88G
The “polymerase ribozyme fitness (log ratio)” value of the first is lower: -6.28 for the first, -1.33 for the second.

First: C80A U106A
Second: C22U C40G G63A A74U A75U
The “polymerase ribozyme fitness (log ratio)” value of the first is higher: -3.28 for the first, -5.63 for the second.

Going from A37U U112G to A26U C85U C123A, the “polymerase ribozyme fitness (log ratio)” value falls from -1.14 to -3.83.

First: A37G G69U C73U U87C C104A U131G
Second: C70U C86U G117A
The “polymerase ribozyme fitness (log ratio)” value of the first is lower: -4.34 for the first, -2.35 for the second.

Going from C70G to C13A C20U C40U C72A A83C G117U C124A, the “polymerase ribozyme fitness (log ratio)” value falls from -2.49 to -4.4.

Compared with C53U G63A G113U, A5G G61A U78A A84C U129A is higher in “polymerase ribozyme fitness (log ratio)” value: -5.15 for the first, -1.36 for the second.

Going from G44A G48C C102U C124A to G42U C70G, the “polymerase ribozyme fitness (log ratio)” value falls from -1.74 to -4.95.

First: C99U U112C G117A G128A
Second: G60U C114U C123U
The “polymerase ribozyme fitness (log ratio)” value of the first is lower: -5.01 for the first, -3.67 for the second.

Compared with C8G U55G G61C, C49A C89U U92C A95G U96A G113A U133A is lower in “polymerase ribozyme fitness (log ratio)” value: -0.439 for the first, -3.76 for the second.

Going from C8U C28G C70A U131A to C82U C97G, the “polymerase ribozyme fitness (log ratio)” value falls from -4.27 to -4.81.

Going from C4U G71U C114G U132A to G10A C13U C22G G35C C101A U131G, the “polymerase ribozyme fitness (log ratio)” value falls from -3.02 to -4.66.

Going from A16G U116C to C12U G113U, the “polymerase ribozyme fitness (log ratio)” value falls from 1.6 to -1.65.

Compared with C3U G39A C40U G60C C94A, C13U C82U C85A G117A is higher in “polymerase ribozyme fitness (log ratio)” value: -2.98 for the first, -2.68 for the second.

First: C56A C72G U106A
Second: G61A C115U
The “polymerase ribozyme fitness (log ratio)” value of the first is lower: -1.22 for the first, -0.993 for the second.

First: A6U C72A C85U A90G G107U U112A
Second: C11G U32A A46U C85A U126G
The “polymerase ribozyme fitness (log ratio)” value of the first is higher: -4.8 for the first, -5.61 for the second.

Going from A46U G57C C79U C85A G120U to C49G G63U U96G, the “polymerase ribozyme fitness (log ratio)” value rises from -3.83 to -2.68.

Compared with G47U U78G U96A, U7G is higher in “polymerase ribozyme fitness (log ratio)” value: -1.79 for the first, 0.469 for the second.

Compared with C79U G93C A100U U112G, C13A A46C C124G is higher in “polymerase ribozyme fitness (log ratio)” value: -2.61 for the first, 0.675 for the second.

Compared with G45A G71U, G44U G69C A121G is higher in “polymerase ribozyme fitness (log ratio)” value: -0.591 for the first, 0.0622 for the second.

Going from C20G C123U U126A to A16U C72U, the “polymerase ribozyme fitness (log ratio)” value rises from -3.94 to -1.94.

First: A43U G44C
Second: C15A G63A G127C
The “polymerase ribozyme fitness (log ratio)” value of the first is higher: -1.05 for the first, -4.4 for the second.

First: U9A A119G
Second: G48A A111C
The “polymerase ribozyme fitness (log ratio)” value of the first is higher: 0.948 for the first, -0.446 for the second.
